Key:
KLK2 [1] = target: T1, KLK2 (UniProt P20151 25-261, limits assumed); test: cell-based or functional assay
KLK2 [2] = target: T1, KLK2; test: cell-based or functional assay; remark: listed apart in the source

T1 sequence (P20151 25-261 limits assumed): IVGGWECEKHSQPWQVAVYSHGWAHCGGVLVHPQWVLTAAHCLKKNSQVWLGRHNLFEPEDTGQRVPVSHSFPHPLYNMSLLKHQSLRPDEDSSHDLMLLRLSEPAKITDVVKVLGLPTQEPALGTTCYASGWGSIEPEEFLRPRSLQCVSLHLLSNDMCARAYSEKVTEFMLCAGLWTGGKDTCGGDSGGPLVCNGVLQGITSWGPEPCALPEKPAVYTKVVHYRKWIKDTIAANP

B1: KL2B870 (KL2B30 in hIgG1-RE) (antibody)
heavy: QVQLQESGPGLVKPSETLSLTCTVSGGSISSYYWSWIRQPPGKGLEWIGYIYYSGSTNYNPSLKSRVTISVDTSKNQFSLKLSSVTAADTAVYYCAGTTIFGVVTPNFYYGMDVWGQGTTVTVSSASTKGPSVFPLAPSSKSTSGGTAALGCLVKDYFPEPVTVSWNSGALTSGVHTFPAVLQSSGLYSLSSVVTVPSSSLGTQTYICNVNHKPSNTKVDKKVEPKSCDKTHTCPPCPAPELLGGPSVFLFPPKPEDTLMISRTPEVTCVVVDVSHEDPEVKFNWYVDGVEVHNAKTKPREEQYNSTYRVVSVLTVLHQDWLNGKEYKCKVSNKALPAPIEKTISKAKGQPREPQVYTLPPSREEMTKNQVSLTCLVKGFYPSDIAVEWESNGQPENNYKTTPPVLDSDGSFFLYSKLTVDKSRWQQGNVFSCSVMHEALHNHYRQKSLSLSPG
light: DIQMTQSPSFLSASVGDRVTITCRASQGISSYLAWYQQKPGKAPKFLIYAASTLQSGVPSRFSGSGSGTEFTLTISSLQPEDFATYYCQQLNSYPLTFGGGTKVEIKRTVAAPSVFIFPPSDEQLKSGTASVVCLLNNFYPREAKVQWKVDNALQSGNSQESVTEQDSKDSTYSLSSTLTLSKADYEKHKVYACEVTHQGLSSPVTKSFNRGEC
ADCC killing EC50 (M), PBMC effector cells on VCaP cells, 48 hours (KLK2 [1]): 1e-09 M | ADCC activity, percent cell killing of VCaP cells by PBMC (KLK2 [2]): ~73%

B2: KL2B870.CLF (antibody, human IgG1, kappa)
heavy: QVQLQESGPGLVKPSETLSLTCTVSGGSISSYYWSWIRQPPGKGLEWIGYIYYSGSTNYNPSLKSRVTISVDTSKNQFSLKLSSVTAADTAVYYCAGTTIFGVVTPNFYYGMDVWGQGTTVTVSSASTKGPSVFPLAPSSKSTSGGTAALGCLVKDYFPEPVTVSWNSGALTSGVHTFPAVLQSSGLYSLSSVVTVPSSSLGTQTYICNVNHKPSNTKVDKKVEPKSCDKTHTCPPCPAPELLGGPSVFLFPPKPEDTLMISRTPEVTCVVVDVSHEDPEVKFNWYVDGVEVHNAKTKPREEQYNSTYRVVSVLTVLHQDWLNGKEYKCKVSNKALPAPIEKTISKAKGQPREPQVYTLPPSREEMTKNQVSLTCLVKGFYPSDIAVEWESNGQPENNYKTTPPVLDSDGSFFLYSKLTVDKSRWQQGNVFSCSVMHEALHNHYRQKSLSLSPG
light: DIQMTQSPSFLSASVGDRVTITCRASQGISSYLAWYQQKPGKAPKFLIYAASTLQSGVPSRFSGSGSGTEFTLTISSLQPEDFATYYCQQLNSYPLTFGGGTKVEIKRTVAAPSVFIFPPSDEQLKSGTASVVCLLNNFYPREAKVQWKVDNALQSGNSQESVTEQDSKDSTYSLSSTLTLSKADYEKHKVYACEVTHQGLSSPVTKSFNRGEC
modifications: low fucosylation of the Fc oligosaccharide (less than 10% fucosylation)
ADCC killing EC50 (M), PBMC effector cells on VCaP cells, 48 hours (KLK2 [1]): 3.54e-10 M | ADCC activity, percent cell killing of VCaP cells by PBMC (KLK2 [2]): ~89%

B3: KL2B872.CLF (antibody, human IgG1, kappa)
heavy: not shown
light: DIQMTQSPSFLSASVGDRVTITCRASQGISSYLAWYQQKPGKAPKFLIYAASTLQSGVPSRFSGSGSGTEFTLTISSLQPEDFATYYCQQLNSYPLTFGGGTKVEIKRTVAAPSVFIFPPSDEQLKSGTASVVCLLNNFYPREAKVQWKVDNALQSGNSQESVTEQDSKDSTYSLSSTLTLSKADYEKHKVYACEVTHQGLSSPVTKSFNRGEC
modifications: low fucosylation of the Fc oligosaccharide (less than 10% fucosylation)
ADCC killing EC50 (M), PBMC effector cells on VCaP cells, 48 hours (KLK2 [1]): 4.12e-10 M | ADCC activity, percent cell killing of VCaP cells by PBMC (KLK2 [2]): ~85%

Source: US20250230254A1 (Janssen / Centocor, published 2025)
